Reference: US20230242658A1

Columns and labels:
[1] = biological target: human 4-1BB on CHO-K1 cells (human) (UniProt Q07011); assay: FACS; FIG. 25E
[2] = biological target: human 4-1BB on CHO-K1 cells (human) (UniProt Q07011); assay: FACS; FIG. 25D
[3] = biological target: human 4-1BB on CHO-K1 cells (human) (UniProt Q07011); assay: FACS; FIG. 11H
[4] = biological target: human 4-1BB on CHO-K1 cells (human) (UniProt Q07011); assay: FACS; FIG. 25A
[5] = biological target: human 4-1BB on CHO-K1 cells (human) (UniProt Q07011); assay: FACS; FIG. 11I
[6] = biological target: human 4-1BB on CHO-K1 cells (human) (UniProt Q07011); assay: FACS; FIG. 25B
[7] = biological target: human 4-1BB on CHO-K1 cells (human) (UniProt Q07011); assay: FACS blocking of 4-1BBL; FIG. 14F
[8] = biological target: human 4-1BB on CHO-K1 cells (human) (UniProt Q07011); assay: FACS blocking of 4-1BBL; FIG. 14H
[9] = biological target: human 4-1BB on CHO-K1 cells (human) (UniProt Q07011); assay: FACS; FIG. 25C
[10] = biological target: human 4-1BB on CHO-K1 cells (human) (UniProt Q07011); assay: FACS blocking of 4-1BBL; FIG. 14G
[11] = biological target: human 4-1BB on CHO-K1 cells (human) (UniProt Q07011); assay: FACS; FIG. 11J

human 4-1BB on CHO-K1 cells (human), sequence (Q07011 24-255): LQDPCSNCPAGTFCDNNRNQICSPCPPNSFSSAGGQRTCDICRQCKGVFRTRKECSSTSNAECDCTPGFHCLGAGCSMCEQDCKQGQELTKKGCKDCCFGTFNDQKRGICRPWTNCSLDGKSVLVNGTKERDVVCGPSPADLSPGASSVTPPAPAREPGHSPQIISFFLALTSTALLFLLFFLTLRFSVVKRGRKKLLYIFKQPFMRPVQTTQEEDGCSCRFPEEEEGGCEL

EC50 [1]: 235 pM
EC50 [2]: 653 pM
EC50 [3]: 683 pM
EC50 [4]: 1010 pM
EC50 [5]: 712 pM
EC50 [6]: 347 pM
IC50 [7]: 1270 pM
IC50 [8]: 232 pM
EC50 [9]: 519 pM
IC50 [10]: 447 pM
EC50 [11]: 486 pM
Substance: Urelumab
